Assay results reported in the supplement of paper PMC6757056.
± gives the standard deviation of the averaged measurements.

B1: library; a variant is named by its letters at N, in order (parent)
chain: GCUGUCACCGGAAUACCAGCAUCGUCUUGAUGCCCUUGGAAGUCCGGUCUGAUGAGUCCNNNNNGGACGAAACAGC

Tests used:
theophylline [1] = variants of: B1; assay: FACS-Seq fitted mean relative fluorescence mCherry/BFP without ligand (log10 relative fluorescence); higher = higher reporter protein expression; settings: HEK293T, ligand present: no
How it was run: (§1)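 Lentivirally transduced HEK293T libraries carried an mCherry reporter with the ribozyme switch and an EF1α-BFP marker. Transduced cells were enriched, then incubated with or without ligand for 48 h and sorted into 6 bins by mCherry/BFP. Genomic DNA from each bin was PCR-amplified, barcoded and sequenced on MiSeq. Fluorescence was the fitted normal mean of log10(mCherry/BFP) bin counts, scaled to five spiked-in control ribozymes.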

theophylline [2] = variants of: B1; assay: normalized RNA/DNA level with ligand (relative to sTRSVctl = 100) (log10 (% of sTRSVctl)); higher = less ribozyme self-cleavage, higher mRNA level; settings: ligand concentration (+) RNA-Seq: 5 mM, HEK293T, reporter: mCherry (pCS4076), ligand present: yes
How it was run: (§2)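 Ribozyme switch library plasmids with mCherry reporters (eGFP in certain ligand experiments) went into HEK293T cells at 4 µg per 6-well well. Where ligand was used, it was applied 1 h before transfection, and total RNA was extracted with EDTA 72 h later for reverse transcription, amplification, barcoding and sequencing. RNA level is the RNA-to-DNA read ratio normalized to a spiked-in non-cleaving sequence or to the leading sequences, then scaled and log-transformed. Scaling was ×100 with log10, the leading set comprised 25 sequences, and the cutoff was ≥100 DNA reads.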

theophylline [3] = variants of: B1; assay: normalized RNA/DNA level without ligand (relative to sTRSVctl = 100) (log10 (% of sTRSVctl)); higher = less ribozyme self-cleavage, higher mRNA level; settings: HEK293T, reporter: mCherry (pCS4076), ligand present: no
How it was run: as §2

theophylline [4] = variants of: B1; assay: FACS-Seq fitted mean relative fluorescence mCherry/BFP with ligand (log10 relative fluorescence); ligand concentration (+) FACS-Seq: 1 mM; higher = higher reporter protein expression; settings: HEK293T, ligand present: yes
How it was run: as §1

Row | Variant | FACS-Seq fitted mean (log10) (theophylline [1]) | normalized RNA/DNA level with ligand (log10) (theophylline [2]) | normalized RNA/DNA level without ligand (log10) (theophylline [3]) | FACS-Seq fitted mean (log10) (theophylline [4])
1 | AGCAA | 0.327 ± 0.12 | 1.94 ± 0.035 | 1.46 ± 0.09 | 0.627 ± 0.067
2 | AGCAG | 0.801 ± 0.041 | 2.03 ± 0.12 | 1.81 ± 0.027 | 0.944 ± 0.048
3 | UGCAC | 0.938 ± 0.039 | 2.04 ± 0.11 | 2.01 ± 0.022 | 0.991 ± 0.051
4 | UGCAU | 1.25 ± 0.16 | 1.92 ± 0.078 | 1.853 ± 0.018 | 1.3 ± 0.1
5 | CGCUA | 0.353 ± 0.072 | 1.87 ± 0.069 | 1.48 ± 0.041 | 0.612 ± 0.076
6 | CGCUU | 0.746 ± 0.19 | 1.99 ± 0.087 | 1.62 ± 0.075 | 0.896 ± 0.11
7 | UGACA | 0.298 ± 0.03 | 1.93 ± 0.051 | 1.52 ± 0.048 | 0.527 ± 0.05
8 | UGACU | 1.21 ± 0.077 | 1.9948 ± 0.0009 | 1.87 ± 0.022 | 1.22 ± 0.12
9 | UGACG | 0.444 ± 0.13 | 1.977 ± 0.0053 | 1.89 ± 0.031 | 0.53 ± 0.076
10 | AGACA | 0.0301 ± 0.062 | 1.87 ± 0.04 | 1.72 ± 0.031 | 0.35727 ± 0.0003
11 | AGACG | 0.74 ± 0.1 | 2.01 ± 0.082 | 1.89 ± 0.021 | 0.863 ± 0.018
12 | AUAAC | 0.876 ± 0.022 | 2.05 ± 0.13 | 1.96 ± 0.15 | 0.881 ± 0.11
13 | AUAAG | 0.547 ± 0.16 | 1.97 ± 0.17 | 1.79 ± 0.082 | 0.578 ± 0.014
14 | AUAAU | 0.702 ± 0.0096 | 2.002 ± 0.012 | 1.79 ± 0.079 | 0.703 ± 0.064
15 | AUAAA | 0.196 ± 0.0089 | 1.99 ± 0.037 | 1.4 ± 0.12 | 0.487 ± 0.033
16 | AUACA | 0.687 ± 0.07 | 1.98 ± 0.021 | 1.85 ± 0.12 | 0.796 ± 0.012
17 | AGAUU | 0.511 ± 0.068 | 1.99 ± 0.12 | 1.736 ± 0.01 | 0.627 ± 0.07
18 | AGAUA | 0.67126 ± 0.00023 | 2.01 ± 0.027 | 1.61 ± 0.11 | 0.73474 ± 0.00057
19 | AGAUG | 0.533 ± 0.011 | 1.9309 ± 0.0011 | 1.803 ± 0.017 | 0.4899 ± 0.0023
20 | CGUCC | 0.784 ± 0.02 | 2.01 ± 0.086 | 2 ± 0.044 | 0.87 ± 0.021
21 | CGGUA | 0.028 ± 0.083 | 1.894 ± 0.0076 | 1.3 ± 0.025 | 0.602 ± 0.0084
22 | CGGUC | 1.07 ± 0.037 | 1.98 ± 0.051 | 1.82 ± 0.076 | 1.13 ± 0.05
23 | UGAAC | 1.07 ± 0.11 | 1.97 ± 0.06 | 1.84 ± 0.036 | 0.983 ± 0.022
24 | UGAAU | 0.471 ± 0.056 | 1.94 ± 0.057 | 1.77 ± 0.15 | 0.732 ± 0.045

Row | Variant | FACS-Seq fitted mean (log10) (theophylline [1]) | normalized RNA/DNA level with ligand (log10) (theophylline [2]) | normalized RNA/DNA level without ligand (log10) (theophylline [3]) | FACS-Seq fitted mean (log10) (theophylline [4])
25 | ACUUU | 0.872 ± 0.15 | 2.012 ± 0.0039 | 1.89 ± 0.022 | 0.813 ± 0.11
26 | ACUUA | 0.5998 ± 0.0045 | 2.05 ± 0.037 | 1.78 ± 0.032 | 0.66 ± 0.015
27 | CCUUU | 0.664 ± 0.036 | 2.046 ± 0.019 | 1.85 ± 0.039 | 0.81 ± 0.074
28 | CCUUA | 0.654 ± 0.02 | 1.992 ± 0.0039 | 1.73 ± 0.1 | 0.707 ± 0.035
29 | UGUGU | 0.525 ± 0.032 | 1.88 ± 0.044 | 1.87 ± 0.15 | 0.589 ± 0.048
30 | UGUGA | 0.563 ± 0.0013 | 2.05 ± 0.037 | 1.54 ± 0.11 | 0.837 ± 0.034
31 | UGUGC | 0.71 ± 0.038 | 2.04 ± 0.047 | 1.93 ± 0.086 | 0.652 ± 0.0049
32 | UGAGA | 0.307 ± 0.012 | 1.922 ± 0.0069 | 1.5 ± 0.13 | 0.709 ± 0.041
33 | UGAGU | 0.6996 ± 0.0034 | 2.02 ± 0.17 | 1.86 ± 0.12 | 0.676 ± 0.013
34 | UGAGC | 1.21 ± 0.082 | 1.9256 ± 8.8e-05 | 1.98 ± 0.13 | 1.24 ± 0.12
35 | AGAAC | 0.387 ± 0.005 | 1.9164 ± 0.00023 | 1.78 ± 0.12 | 0.507 ± 0.016
36 | AGAAA | -0.278 ± 0.17 | 1.853 ± 0.0095 | 1.12 ± 0.042 | 0.515 ± 0.022
37 | AGAAG | 0.448 ± 0.033 | 1.93 ± 0.025 | 1.61 ± 0.17 | 0.576 ± 0.014
38 | CUACA | 0.702 ± 0.027 | 2.031 ± 0.0063 | 1.84 ± 0.021 | 0.826 ± 0.11
39 | CCUGC | 0.976 ± 0.012 | 2.02 ± 0.034 | 2.09 ± 0.054 | 0.899 ± 0.054
40 | CCUGA | 0.9447 ± 0.0047 | 2.02 ± 0.028 | 1.92 ± 0.16 | 0.904 ± 0.0082
41 | UUAAC | 0.885 ± 0.033 | 1.946 ± 0.0047 | 1.93 ± 0.042 | 0.858 ± 0.072
42 | UUAAG | 0.769 ± 0.074 | 2.02 ± 0.033 | 1.855 ± 0.012 | 0.829 ± 0.086
43 | UUAAA | 0.111 ± 0.099 | 1.895 ± 0.0096 | 1.26 ± 0.013 | 0.545 ± 0.078
44 | UUAAU | 1.13 ± 0.062 | 1.9977 ± 0.0018 | 1.956 ± 0.013 | 1.07 ± 0.036
45 | UGUAC | 0.923 ± 0.082 | 1.98 ± 0.024 | 1.95 ± 0.045 | 0.851 ± 0.13
46 | CUAAU | 0.912 ± 0.092 | 2.02 ± 0.015 | 1.7874 ± 0.001 | 0.979 ± 0.014
47 | CUAAA | 0.216 ± 0.045 | 2.02 ± 0.035 | 1.5 ± 0.14 | 0.454 ± 0.068
48 | CUAAC | 1.02 ± 0.018 | 1.94 ± 0.028 | 1.85 ± 0.019 | 0.893 ± 0.18

Row | Variant | FACS-Seq fitted mean (log10) (theophylline [1]) | normalized RNA/DNA level with ligand (log10) (theophylline [2]) | normalized RNA/DNA level without ligand (log10) (theophylline [3]) | FACS-Seq fitted mean (log10) (theophylline [4])
49 | UGGUA | 0.0996 ± 0.099 | 1.946 ± 0.011 | 1.28 ± 0.11 | 0.69 ± 0.042
50 | UGGUG | 0.674 ± 0.065 | 2.04 ± 0.041 | 1.87 ± 0.1 | 0.661 ± 0.083
51 | UGGUU | 0.9379 ± 0.005 | 2.042 ± 0.011 | 1.846 ± 0.0051 | 1.01 ± 0.049
52 | UGGUC | 0.57045 ± 0.00034 | 1.984 ± 0.0062 | 1.95 ± 0.12 | 0.356 ± 0.084
53 | AGAGG | 0.93 ± 0.038 | 1.956 ± 0.018 | 1.8 ± 0.11 | 0.966 ± 0.08
54 | AGAGU | 0.387 ± 0.049 | 2.006 ± 0.008 | 1.58 ± 0.045 | 0.442 ± 0.022
55 | AGAGC | 0.629 ± 0.05 | 1.89 ± 0.12 | 1.81 ± 0.027 | 0.813 ± 0.051
56 | AGAGA | 0.056 ± 0.00013 | 1.952 ± 0.0099 | 1.28 ± 0.092 | 0.603 ± 0.011
57 | GUAAA | 0.745 ± 0.13 | 1.982 ± 0.016 | 1.7 ± 0.045 | 0.936 ± 0.11
58 | GUAAU | 0.914 ± 0.062 | 1.937 ± 0.015 | 1.82 ± 0.085 | 0.966 ± 0.16
59 | AGUAG | 0.85 ± 0.075 | 1.97 ± 0.1 | 1.71 ± 0.034 | 0.8838 ± 0.0022
60 | AGUAA | 0.346 ± 0.083 | 1.89 ± 0.12 | 1.35 ± 0.13 | 0.781 ± 0.02
61 | AGUAC | 0.729 ± 0.04 | 1.997 ± 0.019 | 1.83 ± 0.068 | 0.749 ± 0.072
62 | AGCUC | 0.692 ± 0.15 | 2.04 ± 0.2 | 1.9 ± 0.046 | 0.565 ± 0.047
63 | AGCUA | 0.662 ± 0.064 | 2.03 ± 0.037 | 1.76 ± 0.044 | 0.7922 ± 0.0018
64 | AGCCA | 0.758 ± 0.027 | 1.98 ± 0.038 | 1.857 ± 0.0057 | 0.919 ± 0.027
65 | AGCCG | 0.757 ± 0.026 | 1.99 ± 0.14 | 1.93 ± 0.11 | 0.782 ± 0.054
66 | AGCCU | 0.951 ± 0.011 | 1.98 ± 0.023 | 1.91 ± 0.11 | 1.06 ± 0.071
67 | AGGGC | 0.731 ± 0.092 | 1.95 ± 0.022 | 1.93 ± 0.094 | 0.756 ± 0.037
68 | AGGGA | 0.303 ± 0.0048 | 2.04 ± 0.079 | 1.48 ± 0.1 | 0.659 ± 0.029
69 | AGGGU | 0.635 ± 0.08 | 2.05 ± 0.073 | 1.74 ± 0.05 | 0.897 ± 0.059
70 | CGGAA | -0.0214 ± 0.074 | 1.9 ± 0.055 | 1.25 ± 0.17 | 0.354 ± 0.0054
71 | CGGAC | 0.877 ± 0.081 | 1.93 ± 0.024 | 1.8 ± 0.087 | 0.793 ± 0.037
72 | CGGAU | 0.215 ± 0.064 | 2 ± 0.11 | 1.65 ± 0.11 | 0.522 ± 0.046
